For seven molecules, IC50 results are on record in US20200231654A1 (published 2020).

The target of experiment [1] is MMP-12 (catalytic domain) (human), (recombinant) (human, UniProt P39900 106-263). Kind of experiment: enzyme inhibition.
Experiment [2] deals with T1, APMA-activated human MMP-1 enzyme active domain (human, UniProt P03956 100-269).
T1 chain: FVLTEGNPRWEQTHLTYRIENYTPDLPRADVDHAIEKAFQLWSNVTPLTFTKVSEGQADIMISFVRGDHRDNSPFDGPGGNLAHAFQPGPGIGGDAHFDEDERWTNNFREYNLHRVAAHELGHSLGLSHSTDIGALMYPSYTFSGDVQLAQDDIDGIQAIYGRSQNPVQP
The experiment is described as follows: enzyme inhibition.

Experiment [3] concerns the target T2, MMP-2, active, Human, Recombinant, CHO Cells (human, UniProt P08253 110-660).
T2 chain: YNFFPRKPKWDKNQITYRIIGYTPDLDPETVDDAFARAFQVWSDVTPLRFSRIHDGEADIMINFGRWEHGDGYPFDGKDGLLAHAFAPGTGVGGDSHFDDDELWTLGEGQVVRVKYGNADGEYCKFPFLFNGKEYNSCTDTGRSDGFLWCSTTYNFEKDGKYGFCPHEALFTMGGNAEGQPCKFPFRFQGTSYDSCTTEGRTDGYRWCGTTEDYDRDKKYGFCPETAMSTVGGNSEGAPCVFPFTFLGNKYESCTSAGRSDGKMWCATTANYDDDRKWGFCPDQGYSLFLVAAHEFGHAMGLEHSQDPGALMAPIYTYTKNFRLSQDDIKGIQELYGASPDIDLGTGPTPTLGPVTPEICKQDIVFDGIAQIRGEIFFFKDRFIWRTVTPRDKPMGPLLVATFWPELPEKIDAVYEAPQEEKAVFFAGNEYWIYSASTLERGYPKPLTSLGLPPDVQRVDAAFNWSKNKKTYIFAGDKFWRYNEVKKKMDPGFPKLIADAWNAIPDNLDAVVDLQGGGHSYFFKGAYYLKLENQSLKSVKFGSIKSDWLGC
The experiment is described as follows: enzyme inhibition.

For experiment [4], the target named is T3, Recombinant Human MMP-17 Protein, CF (human, UniProt Q9ULZ9 36-565).
T3 chain: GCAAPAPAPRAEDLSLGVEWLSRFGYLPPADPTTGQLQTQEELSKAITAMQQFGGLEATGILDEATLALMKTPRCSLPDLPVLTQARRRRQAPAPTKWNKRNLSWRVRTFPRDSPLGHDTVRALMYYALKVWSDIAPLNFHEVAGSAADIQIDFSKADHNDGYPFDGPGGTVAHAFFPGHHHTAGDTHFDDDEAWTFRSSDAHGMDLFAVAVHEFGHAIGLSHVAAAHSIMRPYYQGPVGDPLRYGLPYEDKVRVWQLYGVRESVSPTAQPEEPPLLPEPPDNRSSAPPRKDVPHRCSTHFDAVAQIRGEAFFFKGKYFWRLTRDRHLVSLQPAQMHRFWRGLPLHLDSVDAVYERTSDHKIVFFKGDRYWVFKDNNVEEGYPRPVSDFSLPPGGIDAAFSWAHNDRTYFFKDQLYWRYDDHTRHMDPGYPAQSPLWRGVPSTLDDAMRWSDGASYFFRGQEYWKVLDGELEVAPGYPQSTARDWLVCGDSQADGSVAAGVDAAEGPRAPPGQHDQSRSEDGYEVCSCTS
The experiment is described as follows: enzyme inhibition.

Experiment [5] deals with APMA-activated human MMP-13 enzyme active domain (human, UniProt P45452 104-274). Kind of experiment: enzyme inhibition.
Experiment [6] concerns the target T4, ADAM17 (catalytic domain) (human), (recombinant) (His-tag) (human, UniProt P78536 215-477).
T4 chain: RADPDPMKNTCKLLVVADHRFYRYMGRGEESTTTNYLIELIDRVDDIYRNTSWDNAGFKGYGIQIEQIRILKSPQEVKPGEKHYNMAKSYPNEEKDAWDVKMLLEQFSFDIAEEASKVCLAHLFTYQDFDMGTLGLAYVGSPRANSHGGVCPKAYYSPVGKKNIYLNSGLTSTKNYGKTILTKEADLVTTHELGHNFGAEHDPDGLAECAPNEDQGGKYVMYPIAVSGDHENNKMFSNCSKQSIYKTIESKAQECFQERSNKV
Kind of experiment: enzyme inhibition.

Experiment [7] addresses T5, MMP-7 (catalytic domain) (human), (recombinant) (human, UniProt P09237 95-267).
T5 chain: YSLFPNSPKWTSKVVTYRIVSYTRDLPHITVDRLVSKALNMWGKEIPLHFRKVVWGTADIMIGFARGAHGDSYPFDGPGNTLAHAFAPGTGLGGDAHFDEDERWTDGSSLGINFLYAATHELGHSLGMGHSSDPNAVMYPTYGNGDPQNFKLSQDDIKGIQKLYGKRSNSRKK
Kind of experiment: enzyme inhibition.

The target of experiment [8] is MT2-MMP, Catalytic Domain, Human, Recombinant, E. coli (human, UniProt P51511 132-304). Kind of experiment: enzyme inhibition.
Experiment [9] has as its target MMP14 Recombinant Protein (human, UniProt P50281 112-287). The experiment is described as follows: enzyme inhibition.
For experiment [10], the target named is APMA-activated human MMP-8 enzyme active domain (human, UniProt P22894 101-262). The experiment is described as follows: enzyme inhibition.
For experiment [11], the target named is Recombinant Human MMP-16/MT3-MMP Protein, CF (human, UniProt P51512 32-564). Kind of experiment: enzyme inhibition.
The target of experiment [12] is active hMMP-9(cat)_His6 (UniProt P14780 107-449). Kind of experiment: enzyme inhibition; substrate gelatin.
The target of experiment [13] is active hMMP-9(cat)_D185A (UniProt P14780 107-449). The experiment is described as follows: substrate peptide degradation inhibition.
Experiment [14] concerns the target active hMMP-9(cat)_Q199G (UniProt P14780 107-449). The experiment is described as follows: substrate peptide degradation inhibition.
The target of experiment [15] is active hMMP-9(cat)_P193A (UniProt P14780 107-449). Kind of experiment: substrate peptide degradation inhibition.
Sequence of active hMMP-9(cat)_P193A (P14780 107-449 P193A): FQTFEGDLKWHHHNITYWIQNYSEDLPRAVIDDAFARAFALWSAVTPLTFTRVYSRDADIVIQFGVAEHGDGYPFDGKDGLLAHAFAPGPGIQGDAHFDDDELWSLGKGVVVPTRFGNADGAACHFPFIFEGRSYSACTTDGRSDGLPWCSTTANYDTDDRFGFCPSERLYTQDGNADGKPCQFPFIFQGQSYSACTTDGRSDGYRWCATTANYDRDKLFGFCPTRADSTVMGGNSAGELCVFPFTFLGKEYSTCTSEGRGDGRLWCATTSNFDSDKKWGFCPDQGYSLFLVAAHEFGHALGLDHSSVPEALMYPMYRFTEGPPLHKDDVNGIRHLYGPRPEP

Sequence of Recombinant Human MMP-16/MT3-MMP Protein, CF (P51512 32-564): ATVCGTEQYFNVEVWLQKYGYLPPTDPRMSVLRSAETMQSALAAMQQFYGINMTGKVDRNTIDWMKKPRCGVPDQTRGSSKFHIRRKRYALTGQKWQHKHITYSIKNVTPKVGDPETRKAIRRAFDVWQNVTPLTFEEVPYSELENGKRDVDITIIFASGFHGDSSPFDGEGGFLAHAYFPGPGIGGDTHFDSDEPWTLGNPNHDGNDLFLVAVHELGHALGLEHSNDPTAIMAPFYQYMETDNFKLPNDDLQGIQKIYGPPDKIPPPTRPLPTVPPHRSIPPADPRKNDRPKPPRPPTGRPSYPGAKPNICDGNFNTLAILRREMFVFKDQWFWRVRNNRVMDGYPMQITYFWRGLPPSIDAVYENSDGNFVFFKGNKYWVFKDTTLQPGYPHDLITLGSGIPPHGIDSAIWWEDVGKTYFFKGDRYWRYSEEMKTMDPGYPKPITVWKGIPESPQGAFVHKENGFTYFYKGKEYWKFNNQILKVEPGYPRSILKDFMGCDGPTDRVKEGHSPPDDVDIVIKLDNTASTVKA
Sequence of MMP-12 (catalytic domain) (human), (recombinant) (P39900 106-263): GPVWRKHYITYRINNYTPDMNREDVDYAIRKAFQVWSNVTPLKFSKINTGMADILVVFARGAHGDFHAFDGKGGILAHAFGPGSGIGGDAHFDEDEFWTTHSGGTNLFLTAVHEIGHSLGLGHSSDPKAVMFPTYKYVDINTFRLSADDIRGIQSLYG
Sequence of MT2-MMP, Catalytic Domain, Human, Recombinant, E. coli (P51511 132-304): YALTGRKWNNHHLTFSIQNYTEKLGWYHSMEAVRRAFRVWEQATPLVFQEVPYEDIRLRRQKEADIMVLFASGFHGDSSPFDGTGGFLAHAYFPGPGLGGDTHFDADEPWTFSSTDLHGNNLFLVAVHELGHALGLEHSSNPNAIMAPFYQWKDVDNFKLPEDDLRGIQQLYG
Sequence of active hMMP-9(cat)_His6 (P14780 107-449): as the sequence (P14780 107-449 P193A) above, with A87P counted along it
Sequence of APMA-activated human MMP-8 enzyme active domain (P22894 101-262): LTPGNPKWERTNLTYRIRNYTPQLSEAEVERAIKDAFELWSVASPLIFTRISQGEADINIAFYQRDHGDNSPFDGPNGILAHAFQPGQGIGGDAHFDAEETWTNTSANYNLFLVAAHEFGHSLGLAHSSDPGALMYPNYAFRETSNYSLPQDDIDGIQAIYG
Sequence of active hMMP-9(cat)_Q199G (P14780 107-449 Q199G): as the sequence (P14780 107-449 P193A) above, with A87P, Q93G counted along it
Sequence of active hMMP-9(cat)_D185A (P14780 107-449 D185A): as the sequence (P14780 107-449 P193A) above, with D79A, A87P counted along it

B1: active MMP-9-binding peptide M91004 (designed binder)
chain: GSGMKETAAAKFERQHMDSPDLGTDDDDKAMADIGSANSDPQFGLFSKYRTPNCRQRKGPSCQMAFQPVCGSDMSTYANECTLCMKIREGGHNIKIIRNGPCGASAAA
By IC50 is commonly meant the concentration that gives 50% inhibition. B1: the 50% inhibitory concentration (IC50) in [1], in experiment [2], in experiment [3], in experiment [4], in experiment [5] and in experiment [6] was above 1 µM each time. The 50% inhibitory concentration (IC50) was above 1 µM in experiment [7]; above 1 µM in [8]; above 1 µM in experiment [9]; above 1 µM in [10]; above 1 µM in experiment [11]; 0.0076 µM in experiment [12].

B2: active MMP-9-binding peptide M91011 (designed binder)
chain: GSGMKETAAAKFERQHMDSPDLGTDDDDKAMADIGSANSDPQFGLFSKYRTPNCMMYKYAQCSHKSQPVCGSDMSTYANECTLCMKIREGGHNIKIIRNGPCGASAAA
As to B2, the IC50 in experiment [1], in [2], in experiment [3], in experiment [4], in experiment [5] and in experiment [6] was above 1 µM throughout. Further, the IC50 was above 1 µM in experiment [7]; above 1 µM in [8]; above 1 µM in experiment [9]; above 1 µM in experiment [10]; above 1 µM in [11]; 0.31 µM in [13]. Also, the 50% inhibitory concentration (IC50) came to 0.022 µM in experiment [14] and 0.11 µM in experiment [15].

B3: active MMP-9-binding peptide M91002 (designed binder)
chain: GSGMKETAAAKFERQHMDSPDLGTDDDDKAMADIGSANSDPQFGLFSKYRTPNCRTGRGPACQMGFQPVCGSDMSTYANECTLCMKIREGGHNIKIIRNGPCGASAAA
With B3, the half-inhibitory concentration (IC50) in [1], in [2], in [3], in experiment [4], in experiment [5] and in experiment [6] was above 1 µM in each case. Besides, the IC50 in experiment [7] is above 1 µM; in [8], above 1 µM; in experiment [9], above 1 µM; in experiment [10], above 1 µM; in experiment [11], above 1 µM; in experiment [12], 0.0085 µM.

B4: active MMP-9-binding peptide M91010 (designed binder)
chain: GSGMKETAAAKFERQHMDSPDLGTDDDDKAMADIGSANSDPQFGLFSKYRTPNCRKVGEPACQMSFNPVCGSDMSTYANECTLCMKIREGGHNIKIIRNGPCGASAAA
On to B4, for which the half-maximal inhibitory concentration (IC50) in [1], in experiment [2], in [3], in [4], in [5] and in experiment [6] was above 1 µM throughout. In addition, the half-maximal inhibitory concentration (IC50) was above 1 µM in [7]; above 1 µM in experiment [8]; above 1 µM in [9]; above 1 µM in experiment [10]; above 1 µM in experiment [11]; 0.0058 µM in experiment [12].

B5: active MMP-9-binding peptide M91001 (designed binder)
chain: GSGMKETAAAKFERQHMDSPDLGTDDDDKAMADIGSANSDPQFGLFSKYRTPNCQRGIGPSCQMSYKPVCGSDMSTYANECTLCMKIREGGHNIKIIRNGPCGASAAA
As for B5, the concentration for half-maximal inhibition (IC50) in [1], in experiment [2], in [3], in experiment [4], in [5] and in experiment [6] was above 1 µM throughout. In addition, the concentration for half-maximal inhibition (IC50) was above 1 µM in experiment [7]; above 1 µM in experiment [8]; above 1 µM in experiment [9]; above 1 µM in experiment [10]; above 1 µM in [11]; 0.0083 µM in experiment [12].

B6: active MMP-9-binding peptide M91012 (designed binder)
chain: GSGMKETAAAKFERQHMDSPDLGTDDDDKAMADIGSANSDPQFGLFSKYRTPNCRVRGGPSCQMSFNPVCGSDMSTYANECTLCMKIREGGHNIKIIRNGPCGASAAA
As to B6, the IC50 in [1], in experiment [2], in [3], in experiment [4], in [5] and in experiment [6] was above 1 µM throughout. Further, the concentration for half-maximal inhibition (IC50) in experiment [7] was above 1 µM; in experiment [8], above 1 µM; in experiment [9], above 1 µM; in [10] it was above 1 µM; in [11], above 1 µM; in experiment [12], 0.0086 µM.

B7: active MMP-9-binding peptide M91014 (designed binder)
chain: GSGMKETAAAKFERQHMDSPDLGTDDDDKAMADIGSANSDPQFGLFSKYRTPNCVMYKYAQCSHKYKPVCGSDMSTYANECTLCMKIREGGHNIKIIRNGPCGASAAA
As for B7, the IC50 in experiment [1], in experiment [2], in experiment [3], in experiment [4], in experiment [5] and in experiment [6] was above 1 µM in each case. Moreover, the IC50 is above 1 µM in experiment [7]; above 1 µM in [8]; above 1 µM in experiment [9]; above 1 µM in [10]; above 1 µM in experiment [11]; 0.003 µM in experiment [12].
